Laboratory results reported in the DeepSol protein solubility set.

experiment: soluble on expression in E. coli; label from the status in PepcDB or PDB records

Row | Sequence | soluble on expression in E. coli
1 | MKIYIEGYGCTLNTADTQIIKNSVNEFEDFELTDNVDDSDIIVINTCIVRQETEHRMISRIEYFKSLDKKVVVAGCMAKALSKKIENLADVLIMPREAQHSGNILKDKLLKDFSEKNNESTQNLNFEDKLNEKIKKVSSQGLITALPICEGCLGSCTYCIVKRARGNLASYDRDLIVKKAEELVKSGTKCLLVTAQDTACYGLDNNDSLPNLINDISEIPEKFAMRIGMMHAKFAEPILDELIESFKSEKVVKFLHLPIQSGDDQVLKDMNRNYTVDEYISVLNEFKSKIKNLNFTTDVIVGFPTETEEAFENTLEIVKKIKPDFTHAAKYSQRKYTKAAILKQVDTKIRKERSEILNELRRELSYENNKRHIGETFEILVTKDNMGVTDNCKNVIFEEPAKIGEFKRVKITGAKTFGLSGKLINLEHHHHHH | soluble
2 | SGAISGDSLISLASTGKRVSIKDLLDEKDFEIWAINEQTMKLESAKVSRVFMTGKKLVYILKTRLGRTIKATANHRFLTIDGWKRLDELSLKEHIALPRKLESSSLQLSPEIEKLSQSDISWDSIVSITETGVEEVFDLTVPGPHNFVANDIIVHASI | soluble
3 | MGSDKIHHHHHHMKILVYGINYSPELTGIGKYTGEMVEWLAAQGHEVRVITAPPYYPQWQVGENYSAWRYKREEGAATVWRCPLYVPKQPSTLKRLLHLGSFAVSSFFPLMAQRRWKPDRIIGVVPTLFCAPGMRLLAKLSGARTVLHIQDYEVDAMLGLGLAGKGKGGKVAQLATAFERSGLHNVDNVSTISRSMMNKAIEKGVAAENVIFFPNWSEIARFQHVADADVDALRNQLDLPDNKKIILYSGNIGEKQGLENVIEAADRLRDEPLIFAIVGQGGGKARLEKMAQQRGLRNMQFFPLQSYDALPALLKMGDCHLVVQKRGAADAVLPSKLTNILAVGGNAVITAEAYTELGQLCETFPGIAVCVEPESVEALVAGIRQALLLPKHNTVAREYAERTLDKENVLRQFINDIRG | not soluble
4 | GIDPFTTARKSTGGKAPRKGGMVVKKRKLATEAGGSDERPKYLPGKHPKNQEKTPHVDYNAPLNPKSELFLDDWHIPKFNRFISFTLDVLIDKYKDIFKDFIKLPSRKFHPQYYYKIQQPMSINEIKSRDYEYEDGPSNFLLDVELLTKNCQAYNEYDSLIVKNSMQVVMLIEFEVLKAKNLKRNYLINSEVKAKLLHYLNKLVDATEKKINQALLGASSPKNLDDKVKLSEPFMELVDKDELPEYYEIVHSPMALSIVKQNLEIGQYSKIYDFIIDMLLVFQNAHIFNDPSALIYKDATTLTNYFNYLIQKEFFPELQDLNERGEINLEFDKFEFENYLAIGGGGPAAAGALAISALDND | soluble
5 | MGSDKIHHHHHHMENSKVSLKIDVLVAEIGSTTTVVNAFHDINTNNPIFLGQGQAPTTVFEGGDVRNGLSGAIKDLANKLSVDDIEYNDMFATSSAAGGLKMTVHGLVYDMTVKAAKEAALGAGAVIRQITSGRIKRTDLNKIKEINPNIILIAGGVDYGERDTAIYNAEMIASMNLGIPVIYAGNVENQEEIRLIFEDTNYKLYITENVYPKIDLLNIEPTRRIIQSVFEEHITTAPGMKYIKEMVNENITPTPGAVMEASKLLYKNIGDLLTLDVGGATTDVHSVTDGSDYINKILVNPEPTAKRSVEGDLGVYVNMKNIVEVIGKENLQSELSIDIDAVIENYPPIPKSKEEILFVERLTKEAVVKAMLRHSGKIRNIYGTTGKVKIAEGKDLTEVRYIVGTGGALTRLPSRIEILDNMLKYNKNNELLFPKEKTKILIDNDYIMASMGVLSKKYEEASLKLLLKSLNFEEERLCILG | not soluble
6 | GSCASCPNNCENGLCTNSCDFEDLLSNCESLKTSAGCKHELLKTKCQATCLCEDKIH | soluble
7 | MGSDKIHHHHHHMSNSLKASTTGLGIVDKARKRLGWTKTSTACWWQDAHTSRATLRRFWQGDRIQQEIFIAICQAVGINDWQNIAEIPNADFEETSTQYLDWDDAPDLESFYGRNQELAQLEEWILGDRCKLIIITGIAGIGKTALALALADLLQLKFDGLIWKTLHSVPSLVPLLDGLLHTFKQTPVDDIPSDTAKLIHHLQQRRCLLILDGLDESEKHYHQFIQQLSRAHHQSCIILTSREQPNIIESNTKTVRSLTLTGLPKDDAVKLLQARGFTGKEIGLSPLIQLYRGNPLALKLVTPLIQSVFGGNIAAFLSQNTIVIGDRLRAILKQQFEQLSDLEQNILYWLAIWQQPISFSRLQTHLLISLDPATVLDAIVSLERRSLLEKWICSDAPAFTLQPLVMKIATDELVERATQEIIQVMQSRDIADFKVLRTHWLLRPGSDDIVGDRILHQLQEKLWQIYGANLVQNLQQILLLLNDKSPLTIGYIACNITTIITKGV | not soluble
8 | SGRTWREADINYTSGFRNSDRILYSSDWLIYKTTDHYQTFTKIRCAQVINTFDGVADYLQTYHKLPDNYITKSEAQALGWVASKGNLADVAPGKSIGGDIFSNREGKLPGK | soluble
9 | MGSDKIHHHHHHMKLVTISGPPSSGKTAVLAGVIRAMMASGLKVGALKYDCLATNDDDVFRAIGVPVQTGLSGNLCPDHYFVSNIEECLDWGIREGFDFLLSESAGLCNRCAPHIKGVLAVCVIDNLMGATTPKKIGPMLKYADIVVITKGDIVSQAEREVFAFQVRRANPRAKIMHVNGITGQGAGELASQFLLAPETTCLDGSRLRFSMPAALCSYCLGETRIGMEFQLGNVKKIKMSEEPAR | not soluble
10 | MAHHHHHHMRKKMKTLHLTGKKNFLFQNMQLRLYKEAPPKVFNKKSSHSSLWIQRQITDRYVLKAKNDNYRSRAAYKLIELDNKYMFLKKNKTILDIGCYPGSWCQVILERTKNYSNEIIGIDKKIMDPLPNIHFIHAEIGGAKDNPNDSNLVDVKLREILQGKKVDIILSDAAVPCVGNKIDDHMNSCELTLGITNFMEQYINMGGTYVVKMYLGSQTDNLKTYLKTIFQFVNTTKPKASRRESREIYLVCRNFLGRKKIGEDVQVKGAFSLKEGYY | not soluble
11 | GPGSMTDCWYIPEAVADRRDENRLSPNVPASYEVLGEAGIFYRHFDSEEVNDNIEGFIQPLLKKLNYQSYDVVNLSPANLGAEKFETLAEQHFMEHIHEDDEVRLILEGQGYFDVRDINDKWIRLLLKPGDCIVVPAGMYHRFTTDQSKCIKTLRIFKEAPQWIALNRGPEAEEKPARKEYLARLHAPAETAVGAVNGRTIFSLRYPLKLDAELTVITKRLLEQHSKQPLALAIYLTGSTDPTTGESWCPDCVLAKLHVARRFAELQGTYGKEHAIFLQLPVERASYLGNPNFFYRTHPILQLASVPTLLVLSPAKDAKEGGDVQWYDLLDVKVRTCDVDRTDVLNLE | soluble
12 | MGQEVSLLAVKTEPLNSSETTATTGDGALDTFTGSVITSSGYSPRSAHQYSPQLYPSKPYPHILSTPAAQTMSAYAGQTQYSGMQQPAVYTAYSQTGQPYSLPTYDLGVMLPAIKTESGLSQTQSPLQSGCLSYSPGFSTPQPGQTPYSYQMPGSSFAPSSTIYANNSVSNSTNFSGSQQDYPSYTAFGQNQYAQYYSASTYGAYMTSNNTADGTPSSTSTYQLQESLPGLTNQPGEFDTMQSPSTPIKDLDERTCRSSGSKSRGRGRKNNPSPPPDSDLERVFVWDLDETIIVFHSLLTGSYAQKYGKDPPMAVTLGLRMEEMIFNLADTHLFFNDLEECDQVHIDDVSSDDNGQDLSTYSFATDGFHAAASSANLCLPTGVRGGVDWMRKLAFRYRRVKELYNTYKNNVAGLLGPAKRDAWLQLRAEIEGLTDSWLTNALKSLSIISTRSNCINVLVTTTQLIPALAKVLLYSLGGAFPIENIYSATKIGKESCFERIMQRFGRKVVYVVIGDGVEEEQAAKKHNMPFWRISSHSDLLALHQALELEYL | not soluble
13 | MDWRHEAVCRDEDPELFFPVGNSGPALAQVAAAKVVCNRCPVTSQCLAWALETGQDAGVWGGMSEDERRALKRRKNRGRGRARATA | not soluble
14 | MGSDKIHHHHHHMIDKLEFFLALARERHFGRAAEECGVTQPTLSAAIRQLEEQLGVILVNRGSRFQGLTPEGQRVLEWARRIVSDSRTMREEMRAARKGLSGHMRLAAVPTTLSMVPLITAPFQEKHPDVTFSVLSTTSLQILALLENLEIDAGLTYLENEPLGRVTSVPLQIEQYHLVTAAGTALSDRESVTWKEVSDIRLCLLTADMQNRRIINQHFAEAGAVPKPTLESNSMIVLFSHVRTGRWASIMPYNVAKSFGFHEDIRMIPIVDPDVRHTVGLVATYREPFTPLVSALLHEARILGERNQVQ | not soluble
15 | TVQCKVTLLDGTEYSCDLEKHAKGQVLFDKVCEHLNLLEKDYFGLLFQESPEQKNWLDPAKEIKRQLRNLPWLFTFNVK | not soluble
16 | MKNVEEQAEREIALSDEMVLQFLQQNPDFFIRNARPVEQMRVPHPVRGTVSLVEWQLARQRNHITQLEEEITLLMEQAGANEVLFNRLLGLQTELASAESLTDMLDRLQRWARQLGLAGAAVRLFSDKWRIGAPSDFTHLGLNRSSFEPLRIQRFGQHNHYLGSLNGPELLLLLPQARQVGSVALSLMGNHHDLGVLIFSSRDSHHYQNGMGTVLLQQMAMMLPAMLARWVERVLEHHHHHH | not soluble
17 | MIGFLSDRQGFEKQYHDIDLSSFGIREGISEIIASTGFEHPNAAPIGIVMKGERPFVRLFKGSHTWENVLKEKCLASNVVYDPILFVRSTFSDLVPSEFEYVDAGEFKFPVLKEAIAWVVFECINLRNTDQSLVADLVPLNAGFNERNIKELPVPNRGFNAVLEATVHATRYQLTGEEKYLELIRHYESLASKCGGDAEKKAMKLIYEALGLLEHHHHHH | not soluble
18 | MGSDKIHHHHHHMVIGQKVLLARIPKMGDNYSTYLLDIEGTVCPISFVKETLFPYFTNKVPQLVQQDTRDSPVSNILSQFHIDNKEQLQAHILELVAKDVKDPILKQLQGYVWAHGYESGQIKAPVYADAIDFIKRKKRVFIYSSGSVKAQKLLFGYVQDPNAPAHDSLDLNSYIDGYFDINTSGKKTETQSYANILRDIGAKASEVLFLSDNPLELDAAAGVGIATGLASRPGNAPVPDGQKYQVYKNFETL | soluble
19 | MTETTYENLTRRIDRISAEMREISEENGLRILSLLESQTKSIKDELSRLLWIELPELNESHKIEAVSKSTTGMFFAPGIFEMDAMRKAFFKRQAKHFFENEAEQQAYIEHAEKEYLEATVTLKDILFNSKNGTQKANKSCLIEKFEEAMQ | not soluble
20 | DIIITAGGKNITPAEIESRLKFSHYISDAVIVGDKRKFLTCLIMIDQENVEKFAQDRKVPFSNFASLCAAKEVRELIAAEVAQVNKEFARVEQIKDFRLIDVLLTAEDDELTATMKLKRSFVEKKHAHLIEDMYK | soluble
21 | MSLNQASLERNELHNTIWKVANELRGSVDGWDFKQYVLGILFYRYISENMTHYINKEERKRDPSFDYAKLSDEKAERGRKHLIEQKGFFIPPSALFCNALKNACHNEDLNVTLQNIFNEIEKSSLGTPSEENVKGLFADLDVNSNKLGSSHQNRVEKLTKILEAIGGMQLGDYLKSGIDVFGDAYEYLMAMYASNAGKSGGEFFTPQEVSELLAKITLHGQESVNKVYDPCCGSGSLLLQFSKVLGDKNVSKGYFGQEINLTTYNLCRINMFLHDINYSKFHIAHGDTLLDPKHEDDEPFDAIVSNPPYSTKWVGDSNPILINDERFSPAGVLAPKNAADLAFTMHMLSYLSNSGTAAIVEFPGVLYRGNAEAKIREYLVKENVIDCVIALPDNLFFGTSIATCILVLKKNKQDDTTLFIDASKEFVKEGKKNKLKERNREKILQTYIERKEIKHFCALANIEKIKENDYNLSVNRYVEQEDTKEAIDIKALNSEIAQIVEKQSALRNRLESIIKELEGGQNEGHHHHHH | soluble
22 | MKKHDGIIVLLSGGMDSATLLWLAKREFKKVYAISFDYGQRHKVELKYAKELAKLAEVEDHFIVQVPFYTSLKGSALIDESVEVPKGEYPENEPPVTTVPMRNLIFLSIASAFADNLEVNYIGIGVHALDTPYPDCRPEFITAAEAAINAGSTFVAKKKERMHVYAPFLGMSKRDIALLGKELGVPFEKTYSCYMGTEPPCGECPTCIQREEALRGIL | soluble
